One test addresses β-arrestin1-YFP (UniProt P49407). The test is described as follows: BRET (PAR2-Rluc8 / β-arrestin1-YFP) in cells. To be noted: read off a plot. (In general: Bioluminescence resonance energy transfer reports proximity on the nanometre scale.)

For the molecule “PAR2-Rluc8 (protease-activated receptor 2 fused to Renilla luciferase 8), uncleaved as expressed (from UniProt P55085) Arg36Ala”, the response (ligand induced ΔBRET) in the test with β-arrestin1-YFP (cells stimulated with GzmK (concentration not given for panel D), parent: est. 0.027) is 0.0038; with β-arrestin1-YFP (cells treated with GzmK-AI (inactive GzmK; concentration not given for panel D), parent: est. -0.001), -0.0015.

B1: Granzyme A (enzyme)
chain: IIGGNEVTPHSRPYMVLLSLDRKTICAGALIAKDWVLTAAHCNLNKRSQVILGAHSITREEPTKQIMLVKKEFPYPCYDPATREGDLKLLQLMEKAKINKYVTILHLPKKGDDVKPGTMCQVAGWGRTHNSASWSDTLREVNITIIDRKVCNDRNHYNFNPVIGMNMVCAGSLRGGRDSCNGDSGSPLLCEGVFRGVTSFGLENKCGDPRGPGVYILLSKKHLNWIIMTIKGAV
Regarding B1, in the test with PAR2 peptide 10 (human), the cleavage product as percent of total peptide by HPLC after 15 h with granzyme is 6.6 % of total.

B2: Granzyme K (enzyme)
chain: IIGGKEVSPHSRPFMASIQYGGHHVCGGVLIDPQWVLTAAHCQYRFTKGQSPTVVLGAHSLSKNEASKQTLEIKKFIPFSRVTSDPQSNDIMLVKLQTAAKLNKHVKMLHIRSKTSLRSGTKCKVTGWGATDPDSLRPSDTLREVTVTVLSRKLCNSQSYYNGDPFITKDMVCAGDAKGQKDSCKGDSGGPLICKGVFHAIVSGGHECGVATKPGIYTLLTKKYQTWIKSNLVPPHTN
On to B2, for which the cleavage product as percent of total peptide by HPLC after 15 h with granzyme with PAR2 peptide 10 (human) is 53 % of total.

These data come from paper PMC9321427.
